Assay results published in patent publication US20210283221A1.

Biological target: human complement C5 with an unidentified amino acid substitution at Arg885 (in serum of the Example 4 patient) (human), P01031
Experiment: cell-based or functional assay

B1: Coversin protein, Q5YD59 19-168 (protein)
chain: DSESDCTGSEPVDAFQAFSEGKEAYVLVRSTDPKARDCLKGEPAGEKQDNTLPVMMTFKNGTDWASTDWTFTLDGAKVTATLGNLTQNREVVYDSQSHHCHVDKVEKEVPDYEMWMLDAGGLEVEVECCRQKLEELASGRNQMYPHLKDC
B1 was tested, and the residual CH50 (U Eq/ml) as % of baseline in serum of the Example 4 patient at Coversin approximately 15 ug/ml (% of baseline CH50) was less than 5.
